The data set can be described thus: yeast display, Sf9 membrane polyspecificity reagent, FACS + sequencing; frameworks hold sequencing errors. In a few lines:
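Sorting gates, low and high (top ~1%), were placed on anti-HA fluorescence to track expression and on streptavidin fluorescence to track reagent binding. A clone's polyreactivity label is taken from the gate it came out of. The reagent was 10% biotinylated, detergent-solubilized Sf9 membrane, applied for 1 hour at 4 °C to galactose-induced yeast display cells.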
As to “QVQLVESGGGLVQAGGSLRLSCAASGFTFEYYTMGWYRQAPGTERELVAAITKRGGSTYYADSVKGRFTISRDNAKNTVYLQMNSLKPEDTAVYYCAVRKPYSRYTVNYDSWGQGTQVTVSS”, the “polyreactivity (PSR sort gate)” value is recorded as “high polyreactivity”.
Take “QVQLVESGGGLVQAGGSLRLSCAASGFTFFANAMGWYRQAPGKERELVAAISISDATTYYADSVKGRFTISRDNAKNTVYLQMNSLKPEDTAVYDCAAEPEYIAGPLDYWGQGTQVTVSS”: the “polyreactivity (PSR sort gate)” value is given as “high polyreactivity”.
As for “QVQLVESGGGLVQAGGSLRLSCAASGFTFFHNAMGWYRPAPGKERELVAAITSGGNTYYADSVKGRFTISRDNAKNTVYLQMNSLKPEDTAVYYCAASFWSSGQWYDYWGQGTQVTVSS”, the “polyreactivity (PSR sort gate)” value was “high polyreactivity”.
For the sequence “QVQLVESGGGLVQAGGSLRLSCAASGFTFFHYAMGWYRQATGKEREFVAAINTRGSRTYYADSVKGRFTISRDNAKNTVYLQMNSLKPEDTAVYYCAADSVQVYAWQYYYWGQGTQVTVSS”, the “polyreactivity (PSR sort gate)” value was “high polyreactivity”.
“QVQLVESGGGLVQAGGSLRLSCAASGFTFFKYAMGWYRQAPGKERVLVAAITRNGGRTYYADSVKGRFTISRDNAKNTVYLQMNSLKPEDTAVYYCNAASVNGGRDFDYWGQGTQVTVSS”: the “polyreactivity (PSR sort gate)” value was “high polyreactivity”.
Consider “QVQLVESGGGLVQAGGSLRLSCAASGFTFFPYAMGWYRQAPGKERELVAGITYIGGSTYYADSVKGRFTISRDNAKNTVYLQMNSLKPEDTAVYYCNAGRIGGFDWGQGTQVTVSS”, for which the “polyreactivity (PSR sort gate)” value is reported as “low polyreactivity”.
As to “QVQLVESGGGLVQAGGSLRLSCAASGFTFFPYAMGWYRQAPGTERELVAAITETGGRTYYADSVKGRFTISRDNAKYTVYLQMNSLKPEDTAVYYCAKRGLHGYFVRGERGYWGQGTQVTVSS”, the “polyreactivity (PSR sort gate)” value was “low polyreactivity”.
Then “QVQLVESGGGLVQAGGSLRLSCAASGFTFFRNAMGWYRQAPGKERELVAAISGSGGSTYYADSVKGRFTISRDNATNTVYLQMNSLIPVDTAVYYCATYSYPAKVREAYNYWGQGTQVTVSS”, with “low polyreactivity”.
Then “QVQLVESGGGLVQAGGSLRLSCAASGFTFFSKAMGWYRQAPGKERELVAAITTNGGSTYYADSVKGRFTISRDNAKNTVYLQMNSLKPEETAVYYCAADYSLPWSWLYEYWGQGTQVTVSS”, with “low polyreactivity”.
Then “QVQLVESGGGLVQAGGSLRLSCAASGFTFFSNAMGWNRQAPGKERELVAAIDWSGDNTNYADSVKGRFTISRDNAKNTVYLQLNSLKPEDTAVYYCAAVYSYYRLYAYPAYYYWGQGTQVTVSS”, with “low polyreactivity”; and “QVQLVESGGGLVQAGGSLRLSCAASGFTFFSYAMGWYRQAPGKERELVAAISWSGGTTYYADSVKGRFTISRDNAKNTDYLQMNSLKPEDTAVYYCAAGPFSYSHYGRKFYYWGQGTQVTVSS”, with “high polyreactivity”; and “QVQLVESGGGLVQAGGSLRLSCAASGFTFFTYAMGWYRQAPGKERELVAAIRWRGSTTYYADSVKGRFTISRDNAKYTVYLQMNSLKPEDTAVYYCAAELRFRQTGLAYWGDYWGQGTQVTVSS”, with “high polyreactivity”.
For “QVQLVESGGGLVQAGGSLRLSCAASGFTFFWYAMGWSRQAPGKERELVAGITYRGGSTYYADSVKGRFTISRDNAKNTVYLQMNSLKPEDTAVYYCNADVVTKHISAWWDRYYRRYYYWGQGTQVTVSS”, the “polyreactivity (PSR sort gate)” value is on record as “low polyreactivity”.
The value for “QVQLVESGGGLVQAGGSLRLSCAASGFTFFYNDMGSYRQAPGKERELVAAINLSGGTTYYADSVKGRFTISRDNAKNTVYLQMNSLIPEDTAVYYCNRASSTPWYRWRYKPFDYWGQGTQVTVSS” was “high polyreactivity”; that for “QVQLVESGGGLVQAGGSLRLSCAASGFTFFYYVMGWYRQAPGKERDLVAAITRGGSTYYADSVKGRFTISRDNAKNTVDLQMNSLKPEDTAVYYCNKVLRVYLGRFEYYSWGQGTQVTVSS” was “high polyreactivity”; that for “QVQLVESGGGLVQAGGSLRLSCAASGFTFGAYAMGWYRQAPGTERELVAAISYRGGRTYYADSVKGRFTISRDNAKNTVYLQMNSLKPEDTAVYYGNTVYLVTWRVKGYYWGQGTQVTVSS” was “low polyreactivity”.
